In the DeepSol protein solubility set:

test: soluble on expression in E. coli; label from the status in PepcDB or PDB records

Sequence | soluble on expression in E. coli
EDMKGKIRVYCRLRPLCEKEIIAKERNAIRSVDEFTVEHLWKDDKAKQHMYDRVFDGNATQDDVFEDTKYLVQSAVDGYNVCIFAYGQTGSGKTFTIYGADSNPGLTPRAMSELFRIMKKDSNKFSFSLKAYMVELYQDTLVDLLLPKQAKRLKLDIKKDSKGMVSVENVTVVSISTYEELKTIIQRGSEQRHTTGTLMNEQSSRSHLIVSVIIESTNLQTQAIARGKLSFVDLAGSERVKKSGSAGNQLKEAQSINKSLSALGDVISALSSGNQHIPYRNHKLTMLMSDSLGGNAKTLMFVNISPAESNLDETHNSLTYASRVRSIVNDPSKNVSSKEVARLKKLVSYWKEQAGRKGDDEELEEIQDE | soluble
MGSDKIHHHHHHMAYRDQSLGELAIAIPRATKLFRELNLDFCCGGKQTLSRAAGKKDLNIDELEAQLEKLAAQPSDARDWREAPLADIIAYIIPRFHDRHREQLPELILMAKKVERVHHDKADCPHGLANQLTAIYNELSQHMMKEERILFPMIGQGMGANAAAPISVMEHEHDDAGRDVEVVKELTNGVVPPEGACNTWRALYSGINEFITDLMEHIHLENNLLFPRALRGE | not soluble
MSLKFIVKPHPEIFVKSESVRKRFTKILESNIRIIVKARTQGVAVFNRRDHIEVTSNSDTYYAEVLEILTTTPGIQQVLEVQQSSFTDLHNIYEQVLELNRANLENKTFVVRAKRRGKHDFTSIELERYVGGGLNQAIASAKVKLINPDVTVQVEVVDELLNQVIARHKGLGGFPLGTQEDVLSLISGGFDSGVSSYLHIKRGSKVHYCFFNLGGPAHEIGVKQTAYYLWQKYGSSAKVRFIAIDFAPVVAEILEKIDDGQMGVVLKRMFMRTAGMVAEKFGIQALVTGEALGQVSSQTLTNLRHIDNVTDTLILRPLINWDKEDIIRLAREIGTEDFAKTMPEFCGVISKSPTVKAVKEKLEEEEAKFDFALLDQVVYNARQIDIRDIGKEGHHHHHH | soluble
MKILTQSLPNSSAAYLQGYLRENTDSSVTYPTVIIVPGGSYTHIPERQAEDLALAWVARGYQAFFLRYSFISEKTPLLPNPVIELAQSVAAIHAHATTWHVDLRRLAVAGFSVGGHITALFNDWWSEADFNQQAHTTPEQLKVQAVILGYPVISPDLGFPTDAATLATWSTTPKKIAADQHVTAANAPTFIWVTANDPLVPVQNALAYAQASLTHGVDTELHVFHNGPHGLALANSVTAWKPGTDLPHVAHWLDLATEWLQDLKLEHHHHHH | soluble
MAGDPMLTAPPKEAARPTLMPRAQSYKDLTHLPAPTGKIFVSVYNIQDETGQFKPYPASNFSTAVPQSATAMLVTALKDSRWFIPLERQGLQNLLNERKIIRAAQENGTVAINNRIPLQSLTAANIMVEGSIIGYESNVKSGGVGARYFGIGADTQYQLDQIAVNLRVVNVSTGEILSSVNTSKTILSYEVQAGVFRFIDYQRLLEGEVGYTSNEPVMLCLMSAIETGVIFLINDGIDRGLWDLQNKAERQNDILVKYRHMSVPPESLEHHHHHH | not soluble
RSRLVQFQKNTDEPMGITLKMNELNHCIVARIMHGGMIHRQGTLHVGDEIREINGISVANQTVEQLQKMLREMRGSITFKIVPSYREF | soluble
MKNIIPQALLTMPILSTGLQAQEKQPTPNLVFIMADQYRGDAIGCIGKEPVKTPHLDKLASEGINFTNAISSYPVSSPARGMLMTGMYPIGSKVTGNCNSETAPYGVELSQNARCWSDVLKDQGYNMGYIGKWHLDAPYKPYVDTYNNRGKVAWNEWCPPERRHGFDHWIAYGTYDYHLKPMYWNTTAPRDSFYYVNQWGPEYEASKAIEYINGQKDQKQPFALVVSMNPPHTGYELVPDRYKEIYKDLDVEALCKGRPDIPAKGTEMGDYFRNNIRNYYACITGVDENVGRIIEALKQNNLFDNTIVVFTSDHGICMGAHENAGKDIFYEESMRIPMILSWPDQIKPRKSDPLMIAFADLYPTLLSMMGFSKEIPETVQTFDLSNEVLTGKNKKDLVQPYYFVKFDNHATGYRGLRTDRYTYAVHATDGKIDNVILFDRTNDPHEMNNIASQQLKLTHTFNRQLKTWLEKTNDPFAQYIKLKLEHHHHHH | soluble
MKMIQFWFDFASTYSYPAAMQIRQLKDEYRFSLHPFLLGGIFQKQGLNDSPFNAYPVKGQYMWRDLERICQKLDLKFHRPVLFPQNGLLAARIACQYASAPWIFDFICSVYQANFVQNLDIGQPETISQILQNMQLDCNDIIMTSTTDTAKQTLKQNGMIAESLHIFGAPSFVVENELFWGQDRLQDAIDWSQR | not soluble
MANFIEKITYLGTPAIKAGNEHLEMIVVPEWGSNVISLVDKTTNVQLLREPETAESFHDTPTLYGIPILFPPNRISDGTFSFRGRTYHFDINEKDKHNHLHGFLYHEKWNVVTTKQTDEGVIVETEIDLSELPHVQKQFPHHAVVRMTYTIKENTLFKHATVMNKGKEAFPWGIGYHTTFIFPAESSLFSLTADQQWELDERLLPTGKLMDVPYKEALHEGMDLRHKQLDDVFLSSYQKRGGENQAVIYHQHAHISIIYKADEQFKHWVVYNADGKQGYLCPEPYTWVTNAVNLDLPSSLTGLQVLEPGEETTAKSSITIELNHQLEHHHHHH | soluble
MIFGVSRTAGMQPHQNKLPPAFPICPPRFLQNKPPAPPLREAVRHSEYPDPRYEMTFQTAFAPPRFEYSGLTLNQDKATKPQTV | not soluble
MMKITDEKAEDVNLSTIKVVKRDGRLVTFDDQKIYDALIKAEQKIHDQVTPLTHQKVQSIVADVNREIAERFTNNVKIYEIQNIVEHTLLSNNEYALAEEYIHYRTQRDFERSKATD | not soluble
MFSVYAHRVAAVKDEENGAVKKVTDSVENYNSENRFERTIIVANDNKTAILLILRLKQDGVKTSVFTNYLADDEIVLGEQKKAFVEGAHKVAVCTTQMFEKMEFDVVKHYIFVDAPAEEKLRDQLRQKAVCEGKKIRVDLVMSESYEVSVKVEEKPAEASKPSPKRKCSFDIYSIKPNKQGKFVIPAEYMGFDESAEDDEYDSEYDDDDYNPFKWLGF | not soluble
MGSDKIHHHHHHMANVIKLHKGLNINLKGKPAQEFFDVKQPDIYAIVPDDFHGVTPKVVVKEQEYVTAGGTLFVDKNHPEVKFVSPVSGVVTSVERGERRKVLSISIAAAKEQDYEEFGKKDVSTLTGEQVKAALLEAGLFSFIIQRPYIVVADPNAKPKGIFVSAFDTNPLAADFEFVLKGQEKDFQTGLDALAKMAKTYLNISVEQKSPALTNAKNVTVTAFDGPNPAGNVGVQINHISPINKGETVWTLRAEEVIFIGRLFNTGRVDLTRTIALTGSEVKKPAYCKLKVGALLTDIFAGRVNGGKNLRYINGNVLTGTLVKPNGFLGAHATSLTVIPEGDDRHEFLGFIMPRTDQYSANRSYFSWLCGNKEYTLDARIKGGERHMIMSGEYDKVFPMSIFPEYLIKAIIAGDIDRMEALGIYEVAPEDFAVCEFVDSSKLELQRIVRQGLDMLRKEMC | not soluble
MSLQIDEVSKKLNISKSMIRYYEEKGLINISRNQNNYREFNQTVYTTLKLIKDLKRLNLSLEEIKYIVNLFNKPTSKECNIQSTKYLDRIIKDYKRSINEQINILNRLEQVKELSQDMKFEENKTEILNMLAGVKEYDEGHHHHHH | not soluble
MRLTEGIVVDSVLTFGKLRFSALRREVRKQNEDGTVSNEVKERTYNLKSSAQGRMIQVSIPANVPLREFAYDAEVELVNPIVDTVANYVFREGTTVNWFIKADDLVLKRQPNQGNSTNQIEGKK | not soluble
MEYRKVGKWGVKISELSLGSWLTFGKQLDLDTATEVVKKAFNSGINFFDTAEAYAGGIAEAMLGKILKNFRREDLVVSTKIFWGGSGPNDLGLSKKHLLEGTWNSLKRLQMDYVDILYCHRPDPNVPMEEVVFAMDYILREGLALYWGTSEWSAKEIEEAHRVCKELGVMPPIVEQPQYNMFVRERVEKEYAPLYEKYGMGLTTYSPLASGLLSGKYNNGIPEGSRLATFPQVRKWLEEGGLLNEKTFKKLRKLQNIADQLGASLPQLAIAWILKNKNVSSVILGVSRPEQLEENLKAVEIKEKLTEDVMEEIEKILNE | soluble
MTYCLGVKLKDGLVAIADTRITSGTDTTTAKKLFVHESAHGSLFLMTSGLRSVRDKAITYFKEVLKDEHVVYNQLYEAVNAFGNQLRRVAEEDRKALYAAGFAFNLHTIVGGQLKNDEEPKMFLLYPEGNWIELTQTSPFMIIGNSGYGKPILNRTVKYESTLEEVLKAGFLSFDSTRVSANDVDFPLDVVVYYNNSFKMIEHRFEKKDMEIISTTWDNQLKQALDSVPEEWMNVVFDRKNVLLEHHHHHH | not soluble
MRTHDDTWDIKTSVGTTAVMVAAARAAETDRPDALIRDPYAKLLVTNTGAGALWEAMLDPSMVAKVEAIDAEAAAMVEHMRSYQAVRTNFFDTYFNNAVIDGIRQFVILASGLDSRAYRLDWPTGTTVYEIDQPKVLAYKSTTLAEHGVTPTADRREVPIDLRQDWPPALRSAGFDPSARTAWLAEGLLMYLPATAQDGLFTEIGGLSAVGSRIAVETSPLHGDEWREQMQLRFRRVSDALGFEQAVDVQELIYHDENRAVVADWLNRHGWRATAQSAPDEMRRVGRWGDGVPMADDKDAFAEFVTAHRL | soluble
MTVIIKSMETPEEIEGKSFVHWQTWREAYDDLLPAEFQETMTLERCRLFSQKYPENTLIAMDGVKIVGFISYGNCRDETIQAGEIIALYVLKDYYGKGIAQKLVKAALTDLNHFSEIFLWVLKDNKRAIAFYQKMGFTFDGQEKILELGKPIKEKRMVFYSK | not soluble
SNMEVDVFPDLNAPTVVVMTEATGMAPEEVERLVTFPVETAVNGATDVRRVRSSSTTGFSIVWVEFDWGTDIYRARQIVSEKLAVVGADLPDNVGKPTLGPQSSILGEVMIIGLTADSTSLQDLRTLADWTIRPRLLSIGGVAQVTVLGGDIKEYQILLNPERMKHYGITLAEVRAAVDQMNRNASGGVLYEYGNEYIICGLLSTNDAAALGKTLVKSLDDIPIMLESVAEVRVGNKAPKLGLASERGQSAVLVTITKQPATSTLELTERLDRSLADLQKALPSDVKVSTDIFRQERFIENSISNVRK | not soluble
MSAEGFLAEHAHRRPSSRRRRAAQFGSPLTPGQDETVSDRTTADLERELAMLAYVRDRLRASEGEGFRIPTTAVDQVLDERNSLERSPWDPT | not soluble
MGSDKIHHHHHHMRLDEYISRDIAWCPGCGNFGIRTALMKALEELNVDPRQVVIVSGIGQAAKMPQYVGVNMFNGLHGRALPVATAIKTTNPNLLVIAESGDGCMYGEGGNHFIHTIRRNPDIVNIVHDNQVYGLTKGQASPTSLKGFKTPVQVDGVILEPFNPLAVAIALDASFVARTFIGDIEFTKDILKEAMKHKGYALVDILQPCVTFNKLNTYEWYRENTYYLKDHDPTDRELAFKRAIETEKLPLGIFYVNKNKETFEELARKGDRTPLYEYEVNFEKLKELIESKKS | not soluble
MAHHHHHHMHDIGGAELVVAVHQPAAASHGQPFCHEHGKAKTESAGHNLQHAAAIHRNVPKHTRALVVFVARRTPQAVLYGEHGAAADTEVRRKSVHHVRLRPDNAVVHVEHTGQVRTEAALHEDSRARFPATQQRRARHDKPRRQKPDAVQNKRGAVPESRTARGRQHVLRPANRRAQR | soluble
MGSDKIHHHHHHMALLTAETFRLQFNNKRRLRRPYYPRKALLCYQLTPQNGSTPTRGYFENKKKCHAEICFINEIKSMGLDETQCYQVTCYLTWSPCSSCAWELVDFIKAHDHLNLGIFASRLYYHWCKPQQKGLRLLCGSQVPVEVMGFPEFADCWENFVDHEKPLSFNPYKMLEELDKNSRAIKRRLERIKS | not soluble
